Measurements: publication PMC3273806 (Nucleic Acids Research, 2011)

Experiments:
[1] = molecular target: human RAD18, wild type, His-tagged or FLAG-tagged (human, UniProt Q9NS91 1-495); assay: pull-down
[2] = molecular target: human RAD6A (human, UniProt P49459 1-152); assay: pull-down

binding result [1] | binding result [2] | Binder
binds |  | RAD18^ΔC1 (residues 1-341), His-tagged or FLAG-tagged (domain or fragment) MDSLAESRWPPGLAVMKTIDDLLRCGICFEYFNIAMIIPQCSHNYCSLCIRKFLSYKTQCPTCCVTVTEPDLKNNRILDELVKSLNFARNHLLQFALESPAKSPASSSSKNLAVKVYTPVASRQSLKQGSRLMDNFLIREMSGSTSELLIKENKSKFSPQKEASPAAKTKETRSVEEIAPDPSEAKRPEPPSTSTLKQVTKVDCPVCGVNIPESHINKHLDSCLSREEKKESLRSSVHKRKPLPKTVYNLLSDRDLKKKLKEHGLSIQGNKQQLIKRHQEFVHMYNAQCDALHPKSAAEIVREIENIEKTRMRLEASKLNESVMVFTKDQTEKEIDEIHSK
 | binds | ^HisRAD18^ΔN1 (residues 113-495) (domain or fragment) AVKVYTPVASRQSLKQGSRLMDNFLIREMSGSTSELLIKENKSKFSPQKEASPAAKTKETRSVEEIAPDPSEAKRPEPPSTSTLKQVTKVDCPVCGVNIPESHINKHLDSCLSREEKKESLRSSVHKRKPLPKTVYNLLSDRDLKKKLKEHGLSIQGNKQQLIKRHQEFVHMYNAQCDALHPKSAAEIVREIENIEKTRMRLEASKLNESVMVFTKDQTEKEIDEIHSKYRKKHKSEFQLLVDQARKGYKKIAGMSQKTVTITKEDESTEKLSSVCMGQEDNMTSVTNHFSQSKLDSPEELEPDREEDSSSCIDIQEVLSSSESDSCNSSSSDIIRDLLEEEEAWEASHKNDLQDTEISPRQNRRTRAAESAEIEPRNKRNRN
